Test results reported in patent publication US12679878B2, “CRF2 receptor agonists and their use in therapy” (SANOFI, priority 2020, dated 2026).
Starred links: 1 amine or outer side, 2 acyl side, 3 side chain; linkers in the order of their positions; H or OH if unused. Non-standard residues stand in square brackets, D forms with d. Groups on a side chain read outwards from the residue. No end group written: not given here. *: point of attachment. C18 diacid = O=C(O)CCCCCCCCCCCCCCCCC(=O)*; γGlu = O=C(O)[C@H](CCC(=O)[*:2])N[*:1]; Palmitoyl = CCCCCCCCCCCCCCCC(=O)*; Aib = CC(C)(N)C(=O)O

What was measured:
[1] = target: rat CRF2R α receptor (rat, UniProt P47866 20-411); test: cell-based or functional assay
[2] = target: T1, anti-target CRF1R receptor (UniProt P34998 24-415, limits assumed); test: cell-based or functional assay
T1 sequence (looked up): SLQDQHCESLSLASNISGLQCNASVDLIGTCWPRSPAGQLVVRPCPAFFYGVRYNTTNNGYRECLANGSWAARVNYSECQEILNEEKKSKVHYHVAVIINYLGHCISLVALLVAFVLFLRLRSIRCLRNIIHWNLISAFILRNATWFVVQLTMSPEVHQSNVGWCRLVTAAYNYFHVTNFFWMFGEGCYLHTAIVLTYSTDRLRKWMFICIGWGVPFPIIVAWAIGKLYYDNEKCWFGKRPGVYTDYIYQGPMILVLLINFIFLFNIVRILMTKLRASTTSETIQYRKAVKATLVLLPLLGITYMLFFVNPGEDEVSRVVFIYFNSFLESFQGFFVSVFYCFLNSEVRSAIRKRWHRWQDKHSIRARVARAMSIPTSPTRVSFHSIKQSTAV

Sequence of rat CRF2R α receptor (P47866 20-411): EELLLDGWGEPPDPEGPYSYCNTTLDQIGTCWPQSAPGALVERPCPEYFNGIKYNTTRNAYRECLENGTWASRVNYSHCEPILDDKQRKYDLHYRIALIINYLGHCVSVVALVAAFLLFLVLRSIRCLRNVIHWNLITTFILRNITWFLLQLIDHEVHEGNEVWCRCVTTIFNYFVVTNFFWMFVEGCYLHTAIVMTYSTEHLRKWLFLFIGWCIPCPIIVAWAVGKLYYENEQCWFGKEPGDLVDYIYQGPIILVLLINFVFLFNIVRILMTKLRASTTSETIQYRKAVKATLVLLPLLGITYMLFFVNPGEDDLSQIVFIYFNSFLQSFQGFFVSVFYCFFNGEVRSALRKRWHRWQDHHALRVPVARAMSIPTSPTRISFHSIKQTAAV

B1: peptide of SEQ ID NO: 227 (peptide)
peptide: IVLSLD[dV]PIKLK([γGlu-Palmitoyl])QKLLKQQRQRKERQQAEKNKRILERV-NH2
modifications: N-terminus assumed
SMILES: CCCCCCCCCCCCCCCC(=O)N[C@@H](CCC(=O)NCCCC[C@H](NC(=O)[C@H](CC(C)C)NC(=O)[C@H](CCCCN)NC(=O)[C@@H](NC(=O)[C@@H]1CCCN1C(=O)[C@H](NC(=O)[C@H](CC(=O)O)NC(=O)[C@H](CC(C)C)NC(=O)[C@H](CO)NC(=O)[C@H](CC(C)C)NC(=O)[C@@H](NC(=O)[C@@H](N)[C@@H](C)CC)C(C)C)C(C)C)[C@@H](C)CC)C(=O)N[C@@H](CCC(N)=O)C(=O)N[C@@H](CCCCN)C(=O)N[C@@H](CC(C)C)C(=O)N[C@@H](CC(C)C)C(=O)N[C@@H](CCCCN)C(=O)N[C@@H](CCC(N)=O)C(=O)N[C@@H](CCC(N)=O)C(=O)N[C@@H](CCCNC(=N)N)C(=O)N[C@@H](CCC(N)=O)C(=O)N[C@@H](CCCNC(=N)N)C(=O)N[C@@H](CCCCN)C(=O)N[C@@H](CCC(=O)O)C(=O)N[C@@H](CCCNC(=N)N)C(=O)N[C@@H](CCC(N)=O)C(=O)N[C@@H](CCC(N)=O)C(=O)N[C@@H](C)C(=O)N[C@@H](CCC(=O)O)C(=O)N[C@@H](CCCCN)C(=O)N[C@@H](CC(N)=O)C(=O)N[C@@H](CCCCN)C(=O)N[C@@H](CCCNC(=N)N)C(=O)N[C@H](C(=O)N[C@@H](CC(C)C)C(=O)N[C@@H](CCC(=O)O)C(=O)N[C@@H](CCCNC(=N)N)C(=O)N[C@H](C(N)=O)C(C)C)[C@@H](C)CC)C(=O)O
[1]
  EC50 [nM], 0% HSA (cAMP, A7R5 cells): 0.61 nM

B2: peptide of SEQ ID NO: 11 (peptide)
peptide: FTLSLDVPTKIK([γGlu-Palmitoyl])QKLLKQEKQKKQRQKAKTNAQILAQV-NH2
modifications: N-terminus assumed
SMILES: CCCCCCCCCCCCCCCC(=O)N[C@@H](CCC(=O)NCCCC[C@H](NC(=O)[C@@H](NC(=O)[C@H](CCCCN)NC(=O)[C@@H](NC(=O)[C@@H]1CCCN1C(=O)[C@@H](NC(=O)[C@H](CC(=O)O)NC(=O)[C@H](CC(C)C)NC(=O)[C@H](CO)NC(=O)[C@H](CC(C)C)NC(=O)[C@@H](NC(=O)[C@@H](N)Cc1ccccc1)[C@@H](C)O)C(C)C)[C@@H](C)O)[C@@H](C)CC)C(=O)N[C@@H](CCC(N)=O)C(=O)N[C@@H](CCCCN)C(=O)N[C@@H](CC(C)C)C(=O)N[C@@H](CC(C)C)C(=O)N[C@@H](CCCCN)C(=O)N[C@@H](CCC(N)=O)C(=O)N[C@@H](CCC(=O)O)C(=O)N[C@@H](CCCCN)C(=O)N[C@@H](CCC(N)=O)C(=O)N[C@@H](CCCCN)C(=O)N[C@@H](CCCCN)C(=O)N[C@@H](CCC(N)=O)C(=O)N[C@@H](CCCNC(=N)N)C(=O)N[C@@H](CCC(N)=O)C(=O)N[C@@H](CCCCN)C(=O)N[C@@H](C)C(=O)N[C@@H](CCCCN)C(=O)N[C@H](C(=O)N[C@@H](CC(N)=O)C(=O)N[C@@H](C)C(=O)N[C@@H](CCC(N)=O)C(=O)N[C@H](C(=O)N[C@@H](CC(C)C)C(=O)N[C@@H](C)C(=O)N[C@@H](CCC(N)=O)C(=O)N[C@H](C(N)=O)C(C)C)[C@@H](C)CC)[C@@H](C)O)C(=O)O
[1]
  EC50 [nM], 0% HSA (cAMP, A7R5 cells): 0.01 nM
[2]
  EC50[nM] 0% HSA (cAMP, CRF1R-overexpression CHO cells): > 1000 nM
  Emax (%) (cAMP, CRF1R-overexpression CHO cells): 12.7%

B3: peptide of SEQ ID NO: 225 (peptide)
peptide: IVLSLD[dV]PTKLK([γGlu-Palmitoyl])QKLLKQERQRKERE[Aib]AEKNKRILERV-NH2
[1]
  EC50 [nM], 0% HSA (cAMP, A7R5 cells): 0.12 nM

B4: peptide of SEQ ID NO: 8 (peptide)
peptide: FTLSLDVPTKIK([γGlu-Palmitoyl])QKLLKQEKQKKQRQKAKTAAQILAQV-NH2
modifications: N-terminus assumed
SMILES: CCCCCCCCCCCCCCCC(=O)N[C@@H](CCC(=O)NCCCC[C@H](NC(=O)[C@@H](NC(=O)[C@H](CCCCN)NC(=O)[C@@H](NC(=O)[C@@H]1CCCN1C(=O)[C@@H](NC(=O)[C@H](CC(=O)O)NC(=O)[C@H](CC(C)C)NC(=O)[C@H](CO)NC(=O)[C@H](CC(C)C)NC(=O)[C@@H](NC(=O)[C@@H](N)Cc1ccccc1)[C@@H](C)O)C(C)C)[C@@H](C)O)[C@@H](C)CC)C(=O)N[C@@H](CCC(N)=O)C(=O)N[C@@H](CCCCN)C(=O)N[C@@H](CC(C)C)C(=O)N[C@@H](CC(C)C)C(=O)N[C@@H](CCCCN)C(=O)N[C@@H](CCC(N)=O)C(=O)N[C@@H](CCC(=O)O)C(=O)N[C@@H](CCCCN)C(=O)N[C@@H](CCC(N)=O)C(=O)N[C@@H](CCCCN)C(=O)N[C@@H](CCCCN)C(=O)N[C@@H](CCC(N)=O)C(=O)N[C@@H](CCCNC(=N)N)C(=O)N[C@@H](CCC(N)=O)C(=O)N[C@@H](CCCCN)C(=O)N[C@@H](C)C(=O)N[C@@H](CCCCN)C(=O)N[C@H](C(=O)N[C@@H](C)C(=O)N[C@@H](C)C(=O)N[C@@H](CCC(N)=O)C(=O)N[C@H](C(=O)N[C@@H](CC(C)C)C(=O)N[C@@H](C)C(=O)N[C@@H](CCC(N)=O)C(=O)N[C@H](C(N)=O)C(C)C)[C@@H](C)CC)[C@@H](C)O)C(=O)O
[1]
  EC50 [nM], 0% HSA (cAMP, A7R5 cells): 0.11 nM
[2]
  EC50[nM] 0% HSA (cAMP, CRF1R-overexpression CHO cells): > 1000 nM
  Emax (%) (cAMP, CRF1R-overexpression CHO cells): 16%

B5: peptide of SEQ ID NO: 183 (peptide)
peptide: IVLSLD[dV]PIKLK(C18 diacid)QILLKQARQK[Aib]QRAQAEKNKRILERV-NH2
modifications: N-terminus assumed
SMILES: CC[C@H](C)[C@H](N)C(=O)N[C@H](C(=O)N[C@@H](CC(C)C)C(=O)N[C@@H](CO)C(=O)N[C@@H](CC(C)C)C(=O)N[C@@H](CC(=O)O)C(=O)N[C@@H](C(=O)N1CCC[C@H]1C(=O)N[C@H](C(=O)N[C@@H](CCCCN)C(=O)N[C@@H](CC(C)C)C(=O)N[C@@H](CCCCNC(=O)CCCCCCCCCCCCCCCCC(=O)O)C(=O)N[C@@H](CCC(N)=O)C(=O)N[C@H](C(=O)N[C@@H](CC(C)C)C(=O)N[C@@H](CC(C)C)C(=O)N[C@@H](CCCCN)C(=O)N[C@@H](CCC(N)=O)C(=O)N[C@@H](C)C(=O)N[C@@H](CCCNC(=N)N)C(=O)N[C@@H](CCC(N)=O)C(=O)N[C@@H](CCCCN)C(=O)NC(C)(C)C(=O)N[C@@H](CCC(N)=O)C(=O)N[C@@H](CCCNC(=N)N)C(=O)N[C@@H](C)C(=O)N[C@@H](CCC(N)=O)C(=O)N[C@@H](C)C(=O)N[C@@H](CCC(=O)O)C(=O)N[C@@H](CCCCN)C(=O)N[C@@H](CC(N)=O)C(=O)N[C@@H](CCCCN)C(=O)N[C@@H](CCCNC(=N)N)C(=O)N[C@H](C(=O)N[C@@H](CC(C)C)C(=O)N[C@@H](CCC(=O)O)C(=O)N[C@@H](CCCNC(=N)N)C(=O)N[C@H](C(N)=O)C(C)C)[C@@H](C)CC)[C@@H](C)CC)[C@@H](C)CC)C(C)C)C(C)C
[1]
  EC50 [nM], 0% HSA (cAMP, A7R5 cells): 1.12 nM

B6: peptide of SEQ ID NO: 226 (peptide)
peptide: IVLSLD[dV]PIGLK([γGlu-Palmitoyl])QKLLKQQRQRKERQQAEKNKRILERV-NH2
modifications: N-terminus assumed
SMILES: CCCCCCCCCCCCCCCC(=O)N[C@@H](CCC(=O)NCCCC[C@H](NC(=O)[C@H](CC(C)C)NC(=O)CNC(=O)[C@@H](NC(=O)[C@@H]1CCCN1C(=O)[C@H](NC(=O)[C@H](CC(=O)O)NC(=O)[C@H](CC(C)C)NC(=O)[C@H](CO)NC(=O)[C@H](CC(C)C)NC(=O)[C@@H](NC(=O)[C@@H](N)[C@@H](C)CC)C(C)C)C(C)C)[C@@H](C)CC)C(=O)N[C@@H](CCC(N)=O)C(=O)N[C@@H](CCCCN)C(=O)N[C@@H](CC(C)C)C(=O)N[C@@H](CC(C)C)C(=O)N[C@@H](CCCCN)C(=O)N[C@@H](CCC(N)=O)C(=O)N[C@@H](CCC(N)=O)C(=O)N[C@@H](CCCNC(=N)N)C(=O)N[C@@H](CCC(N)=O)C(=O)N[C@@H](CCCNC(=N)N)C(=O)N[C@@H](CCCCN)C(=O)N[C@@H](CCC(=O)O)C(=O)N[C@@H](CCCNC(=N)N)C(=O)N[C@@H](CCC(N)=O)C(=O)N[C@@H](CCC(N)=O)C(=O)N[C@@H](C)C(=O)N[C@@H](CCC(=O)O)C(=O)N[C@@H](CCCCN)C(=O)N[C@@H](CC(N)=O)C(=O)N[C@@H](CCCCN)C(=O)N[C@@H](CCCNC(=N)N)C(=O)N[C@H](C(=O)N[C@@H](CC(C)C)C(=O)N[C@@H](CCC(=O)O)C(=O)N[C@@H](CCCNC(=N)N)C(=O)N[C@H](C(N)=O)C(C)C)[C@@H](C)CC)C(=O)O
[1]
  EC50 [nM], 0% HSA (cAMP, A7R5 cells): 0.04 nM

B7: peptide of SEQ ID NO: 184 (peptide)
peptide: IVLSLD[dV]PIKLK(C18 diacid)QILLKQERQKKQRQQAEKNKQILAQV-NH2
modifications: N-terminus assumed
SMILES: CC[C@H](C)[C@H](N)C(=O)N[C@H](C(=O)N[C@@H](CC(C)C)C(=O)N[C@@H](CO)C(=O)N[C@@H](CC(C)C)C(=O)N[C@@H](CC(=O)O)C(=O)N[C@@H](C(=O)N1CCC[C@H]1C(=O)N[C@H](C(=O)N[C@@H](CCCCN)C(=O)N[C@@H](CC(C)C)C(=O)N[C@@H](CCCCNC(=O)CCCCCCCCCCCCCCCCC(=O)O)C(=O)N[C@@H](CCC(N)=O)C(=O)N[C@H](C(=O)N[C@@H](CC(C)C)C(=O)N[C@@H](CC(C)C)C(=O)N[C@@H](CCCCN)C(=O)N[C@@H](CCC(N)=O)C(=O)N[C@@H](CCC(=O)O)C(=O)N[C@@H](CCCNC(=N)N)C(=O)N[C@@H](CCC(N)=O)C(=O)N[C@@H](CCCCN)C(=O)N[C@@H](CCCCN)C(=O)N[C@@H](CCC(N)=O)C(=O)N[C@@H](CCCNC(=N)N)C(=O)N[C@@H](CCC(N)=O)C(=O)N[C@@H](CCC(N)=O)C(=O)N[C@@H](C)C(=O)N[C@@H](CCC(=O)O)C(=O)N[C@@H](CCCCN)C(=O)N[C@@H](CC(N)=O)C(=O)N[C@@H](CCCCN)C(=O)N[C@@H](CCC(N)=O)C(=O)N[C@H](C(=O)N[C@@H](CC(C)C)C(=O)N[C@@H](C)C(=O)N[C@@H](CCC(N)=O)C(=O)N[C@H](C(N)=O)C(C)C)[C@@H](C)CC)[C@@H](C)CC)[C@@H](C)CC)C(C)C)C(C)C
[1]
  EC50 [nM], 0% HSA (cAMP, A7R5 cells): 0.42 nM
